Data published in patent US20210325404A1 (ADURO BIOTECH HOLDINGS EUROPE B V, published 2021).

T1: human APRIL in serum of CLL patients (human, UniProt O75888 105-250)
T1 construct: Endogenous soluble APRIL in patient sera (CLL1, CLL3, CLL6, CLL11-20); also called hAPRIL; A Proliferation-Inducing Ligand
T1 sequence (looked up): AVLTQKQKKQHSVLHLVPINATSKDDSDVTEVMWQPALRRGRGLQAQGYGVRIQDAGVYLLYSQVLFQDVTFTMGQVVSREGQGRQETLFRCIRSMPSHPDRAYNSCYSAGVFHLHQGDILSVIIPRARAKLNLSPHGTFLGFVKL


What was measured:
[1] = molecular target: T1, human APRIL in serum of CLL patients; assay: ELISA: serum APRIL of CLL1, CLL3 and CLL6 captured by BCMA-Fc (500 or 100 ng/well)
Experimental: To quantify the APRIL serum levels in serum derived from CLL patients using the newly identified APRIL monoclonal antibodies, hAPRIL.130, hAPRIL.132, hAPRIL.133, hAPRIL.135 and hAPRIL.138 the following ELISA assay was performed. […] Next, plates were washed three times with PBS/0.2% Tween and blocked with 150 μl PBS/1% BSA for one hour at 37° C. After washing 3 times with PBS/0.2% Tween 100 μl of samples or standard curves was added. The CLL serum samples were five times diluted in PBS/10% FCS, while standard curve was diluted in PBS+FCS 10%+HS 20%. Samples and standard curve concentrations were incubated for 2 hr at room temperature. Next, plates were washed three times with PBS/0.2% Tween. Next, 100 μl of the anti-APRIL monoclonal antibody was added to the plates at a concentration of 1 μg/ml diluted in PBS/1% BSA and incubated for one hour at 37° C. Subsequently, plates were washed three times with PBS/0.2% Tween and 100 μl of Goat anti-Mouse IgG (H&L) (Southern Biotech, cat number 1031-05), diluted 1:1,000 in PBS/1% BSA was added and incubated for one hour at 37° C. Plates were washed three times with PBS/0.2% Tween and bound immune complexes visualized by addition of 100 μl of TMB substrate (TMB). The reaction was stopped by adding an equal amount of 1 M hydrochloric acid to the reaction volume. Bound APRIL was quantified by measurement of optical density at 450 nm.

[2] = molecular target: T1, human APRIL in serum of CLL patients; assay: ELISA: serum APRIL captured by BCMA-Fc, antibody at 1 µg/ml, goat anti-mouse IgG detection
Experimental: To quantify the APRIL serum levels in serum derived from CLL patients using the newly identified APRIL monoclonal antibodies, hAPRIL.130, hAPRIL.132, hAPRIL.133, hAPRIL.135 and hAPRIL.138 the following ELISA assay was performed. ELISA plates were coated with 100 μl of 0.5 μg/ml BCMA-Fc (EBC0512081; R&D), in coating buffer (0.2 M Sodium Phosphate, pH=6.5) and incubated overnight at 4° C. Next, plates were washed three times with PBS/0.2% Tween and blocked with 150 μl PBS/1% BSA for one hour at 37° C. After washing 3 times with PBS/0.2% Tween 100 μl of samples or standard curves was added. The CLL serum samples were five times diluted in PBS/10% FCS, while standard curve was diluted in PBS+FCS 10%+HS 20%. Samples and standard curve concentrations were incubated for 2 hr at room temperature. Next, plates were washed three times with PBS/0.2% Tween. Next, 100 μl of the anti-APRIL monoclonal antibody was added to the plates at a concentration of 1 μg/ml diluted in PBS/1% BSA and incubated for one hour at 37° C. Subsequently, plates were washed three times with PBS/0.2% Tween and 100 μl of Goat anti-Mouse IgG (H&L) (Southern Biotech, cat number 1031-05), diluted 1:1,000 in PBS/1% BSA was added and incubated for one hour at 37° C. […] Bound APRIL was quantified by measurement of optical density at 450 nm.

binding result [1] | binding result [2] | Binder
binds |  | hAPRIL.133 (antibody, IgG1, V domains shown, constant regions are not; also called hAPRIL.133 mAb; anti-hAPRIL.133 monoclonal antibody) VH: QVQLKESGPGLVAPSQSLSITCTVSGFSLTGYGVNWVRQPPGKGLEWLGVIWGDGSTEYNSALKSRLSISKDKSKSQVFLKMNSLQTDDTARYYCARDDDVMDYWGQGTSVTVSS VL: SIVMTQTPKFLLVSAGDSITITCKADQSVSSDVAWYQQKAGQSPKLLIYYASNRYTGVPDRFTGSGYGTDFTFAISSVQAEDLAVYFCQQDYSSPWTFGGGTKLEIK
binds |  | hAPRIL.135 (antibody, IgG1, V domains shown, constant regions are not; also called anti-hAPRIL antibody hAPRIL.135) VH: QVQLKESGPGLVAPSQSLSITCTVSGFSLSRYSVHWVRQPPGKGLEWLGMIWGGGSTDYNSALKSRLSISKDNSKRQVFLKMNSLQTDDTAIYYCARSNWEIYALDYWGQGTSVTVSS VL: DIVLTQSPASLAVSLGQRATISCKASQSIDYDGDNYMNWYQQKPGQPPKLLIYVASSLESGIPARFSGSGSGTDFTLNIHPVEEEDAATYYCQQSNVEPYTFGGGTKLEIK
 | binds | hAPRIL.138 (antibody, IgG1, V domains shown, constant regions are not; also called anti-hAPRIL antibody hAPRIL.138) VH: QVQLKESGPGLVAPSQSLSITCTVSGFSLSRYSIHWVRQPPRKGLEWLGMIWGGGSTDYNSALKSRLSINKDNSKRQVFLKMHSLQTDDTAIYYCARSNWEIYAMDYWGQGTSVTVSS VL: DIVLTQSPPSLAVSLGQRATISCKASQSIDYDGDRYMNWYQQKPGQPPKLLIYVASNLESGIPARFSGSGSGTDFTLNIHPVEEEDAATYYCQQSHEEPHTFGGGTKLEIK
binds |  | hAPRIL.132 (antibody, IgG1, V domains shown, constant regions are not; also called anti-hAPRIL antibody hAPRIL.132) VH: QEQLKESGPGLVAPSQSLSITCTVSGFSLTSYGVHWVRQPPGKGLEWLGVIWAGGSTNYNSALMSRLSISRDNSKSQVFLKMNSLQTDDTAMYYCAREGLDTSGFYYAMDYWGQGTSVTVSS VL: DIQMTQTTSSLSASLGDRVTISCRAGQAISNYLNWYQQKPGGTVKLLIYYTSKLHSGVPSRFSGSGSGTDYSLTISNLEQEDIATYFCQQGYTLPYTFGGGTKLEIK
